Experimental data reported in paper PMC6599011, “Transcription factor YcjW controls the emergency H2S production in E. coli”.

Legend:
Conditions in all cases: protein: recombinant; tags: His-SUMO (pET28-SUMO), cleaved with SUMO protease; chain copies: 2; label: 32P 5' end (T4 PNK); blunt
YcjW [1] = molecular target: T1, YcjW (Escherichia coli K-12 MG1655, UniProt P77615 1-332); assay: EMSA; shift from about 1:0.5 DNA:protein, increasing with protein; EMSA with 32P-labelled dsDNA; binding buffer as in cited ref 14, not given; sugars preincubated with protein 20 min at room temperature; protein stored in 20 mM Tris-Cl pH 8.0, 50 mM NaCl, 1 mM DTT
T1 sequence: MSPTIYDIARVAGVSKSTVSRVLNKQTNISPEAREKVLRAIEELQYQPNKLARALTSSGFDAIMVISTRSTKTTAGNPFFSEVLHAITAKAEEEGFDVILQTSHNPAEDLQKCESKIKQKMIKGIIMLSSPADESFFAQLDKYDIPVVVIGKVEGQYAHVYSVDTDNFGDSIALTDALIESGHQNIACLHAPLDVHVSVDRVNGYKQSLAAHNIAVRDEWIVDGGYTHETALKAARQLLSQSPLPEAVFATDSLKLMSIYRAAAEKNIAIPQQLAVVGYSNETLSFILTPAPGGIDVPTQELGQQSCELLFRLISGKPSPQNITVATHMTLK

YcjW S258N = molecular target: T2, YcjW S258N (Escherichia coli K-12 MG1655, UniProt P77615 1-332, S258N); assay: EMSA; shift from DNA:protein 1:0.5; no free probe at 1:2; EMSA with 32P-labelled dsDNA; binding buffer as in cited ref 14, not given; sugars preincubated with protein 20 min at room temperature; protein stored in 20 mM Tris-Cl pH 8.0, 50 mM NaCl, 1 mM DTT
T2 sequence: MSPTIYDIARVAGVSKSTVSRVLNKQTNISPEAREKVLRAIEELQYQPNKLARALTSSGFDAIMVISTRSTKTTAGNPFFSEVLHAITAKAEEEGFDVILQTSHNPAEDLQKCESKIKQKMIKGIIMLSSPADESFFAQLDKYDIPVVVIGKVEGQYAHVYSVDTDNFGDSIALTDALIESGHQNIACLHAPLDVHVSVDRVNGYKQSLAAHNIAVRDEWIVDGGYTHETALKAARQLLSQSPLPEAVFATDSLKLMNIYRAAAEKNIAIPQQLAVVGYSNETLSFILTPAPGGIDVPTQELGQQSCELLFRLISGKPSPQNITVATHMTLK

YcjW [2] = molecular target: T1, YcjW; assay: as above

Binder	binding result (YcjW [1])	binding result (YcjW S258N)	binding result (YcjW [2])
ycjM EMSA probe (LL58/LL59) (dsDNA) DNA 1: GAGTAGTCTCTCGTTTCATGGGACCGCTACCACGGAAAGGCAACATGAAAC DNA 2: GTTTCATGTTGCCTTTCCGTGGTAGCGGTCCCATGAAACGAGAGACTACTC	binds		
narP EMSA probe (LL62/LL63) (dsDNA) DNA 1: GGTAACATTCACGCGCCTGGTAGCGTTACCAACGCTACGCTCAAACATAATGATTC DNA 2: GAATCATTATGTTTGAGCGTAGCGTTGGTAACGCTACCAGGCGCGTGAATGTTACC		binds	binds
